B1: Protease 08: protease from Nocardiopsis alba DSM 15647, amino acids 1-188 of SEQ ID NO: 10 (protein, listed as Nocardiopsis alba)
chain: ATGPLPQSPTPDEAEATTMVEALQRDLGLSPSQADELLEAQAESFEIDEAATAAAADSYGGSIFDTDSLTLTVLVTDASAVEAVEAAGAEAKVVSHGMEGLEEIVADLNAADAQPGVVGWYPDIHSDTVVLEVLEGSGADVDSLLADAGVDTADVKVESTTEQPELYADIIGGLAYTMGGRCSVGFAA
B2: Protease 11: protease from Nocardiopsis prasina DSM 15648, amino acids 1-188 of SEQ ID NO: 6 (protein, listed as Nocardiopsis prasina)
chain: ATGPLPQSPTPEADAVSMQEALQRDLGLTPLEADELLAAQDTAFEVDEAAAAAAGDAYGGSVFDTETLELTVLVTDAASVEAVEATGAGTELVSYGIEGLDEIIQDLNAADAVPGVVGWYPDVAGDTVVLEVLEGSGADVSGLLADAGVDASAVEVTSSAQPELYADIIGGLAYTMGGRCSVGFAATN
B3: Protease 18: protease from Nocardiopsis dassonvillei subsp. dassonvillei DSM 43235, amino acids 1-188 of SEQ ID NO: 12 (protein)
chain: APAPVPQTPVADDSAASMTEALKRDLDLTSAEAEELLSAQEAAIETDAEATEAAGEAYGGSLFDTETLELTVLVTDASAVEAVEATGAQATVVSHGTEGLTEVVEDLNGAEVPESVLGWYPDVESDTVVVEVLEGSDADVAALLADAGVDSSSVRVEEAEEAPQVYADIIGGLAYYMGGRCSVGFAAT
modifications: Nocardiopsis dassonvillei subspecies dassonvillei
B4: Brachysporiella protease: protease from Brachysporiella gayana CGMCC 0865, amino acids 1-186 of SEQ ID NO: 14 (protein, listed as Brachysporiella gayana)
chain: MELTSLIAALAVILPIAYGVPMDATTNLSPKVLAAMKRDLGLDAREATARVTFERRAGDVIEELRSSLGDSFAGAWVTDGKVINIGVTDQALVSKVKEAGAEPMVMKNSLGKLQEAKKKLDQIIKEKPKTLSTSGKPGIATYYVDIETNKLIITALSTSITQAEDLAKEVGLSESEFEVRKTEKMP

Assays:
[1] = Stability assay: residual activity after incubation with 1 mM inhibitor, measured by pNA assay; type: physicochemical; parameters: key to Residual Enzyme Activity: fraction of activity at 0 h incubation (0.80 = 80%); conditions: for Residual Enzyme Activity: 1 mM Cu2+, pH 7, 0.1% K-sorbate, relative to 0 hours; for Residual Enzyme Activity / Stability in the presence of 1 mM Cu2+: 25° C.; for Feature i): residual activity at least 0.80 after 164 hours with 1 mM Cu2+: pH 7, 25° C., 0.1% K-Sorbate
Method: Feature i) is determined as residual (=rest, or remaining) enzyme activity after having incubated the enzyme for 164 hours, at pH 7 and 25° C., in assay buffer supplemented with 0.1% K-Sorbate (for preservation purposes), and in the presence of 1 mM Cu^2+. The residual activity is measured relative to the activity after 0 hours of incubation. For the protease of the invention, the residual activity is at least 0.80 (=80%).
(§1) Protease activity is measured using the substrate Suc-AAPF-pNA, in assay buffer at pH 7.0 and 25° C. For more details, please refer to the pNA assay described in Example 4, which also describes in detail the determination according to i) and ii).
(§2) 20 ul (microliters) protease (diluted in 0.01% Triton X-100) was placed in a well of a micro titer plate. The assay was started by adding 200 ul pNA substrate (50 mg dissolved in 1.0 ml DMSO and further diluted 100× with assay buffer). The increase in OD405 was monitored as a measure of the protease activity.
The protease was diluted to approx. 1 mg/ml (see below) in assay buffer with 0.1% (w/v) K-sorbate (potassium salt of sorbic acid) and 1 mM inhibitor. The mixture was incubated at 25° C.). At intervals, a sample was withdrawn from the incubation (after thorough mixing) and frozen. After dilution in assay buffer, residual activity was measured using the pNA assay. For the 1 mM inhibitor additions, the incubation was diluted in assay buffer with 5 mM EDTA in order to see a pure stability effect.
Protease concentrations were estimated from the theoretical molar extinction coefficients, E280 (1 M), which can be calculated from the amino acid composition using the formula: E280 (1 M)=5690*NTrp+1280*NTyr+120*NCys, where NTrp, NTyr, and NCys are the number of Trp, Tyr, and Cys amino acid residues in the protease (Gill, S. C., von Hippel, P. H., Analytical Biochemistry 182: 319-326 (1989)) and the molecular weight, Mw, of the protease calculated from the amino acid sequence. From an A280 measurement of a pure protease sample (more than 95% pure according to Example 2), the protease concentration was calculated as: Conc (mg/ml)=(A280*MW)/E280 (1 M)).
The stability of the various proteases in the presence of the various inhibitors in a concentration of 1 mM was tested as described above. The only inhibitor that had some effect on the stability of some of the proteases was Cu^2+. However, the effect of this inhibitor was not the same on all the proteases: See the results in Table 2 below showing that Protease 18 and the Brachysporiella proteases are indeed stable in the presence of 1 mM Cu^2+, while the other proteases are not.

[2] = pNA assay: protease activity with 1 mM Cu2+ relative to control without Cu2+; type: biochemical; conditions: enzyme 1 mg/l, Suc-AAPF-pNA, pH 7, 25° C.; for Enzyme Activity, +1 mM Cu^2+: 1 mM Cu2+; for Enzyme Activity, Control (no Cu^2+): no Cu2+; for Relative Activity: activity with 1 mM Cu2+ relative to control without Cu2+
Method: as §1
Feature ii) is determined as the enzyme activity in the presence of 1 mM Cu^2+, relative to the activity of the same enzyme under the same conditions, except for the presence of Cu^2+. For the protease of the invention, this relative activity is at least 0.66 (=66%). For the purposes of feature ii), enzyme (protease) activity is measured as described above.
pNA substrate: Suc-AAPF-pNA (Bachem L-1400) or Boc-VLGR-pNA (Bachem L-1205). Temperature: 25° C.
as §2
First, the effect of various Cu^2+ concentrations was tested with an enzyme dosage of 1 mg/l. At least in the range of 0 to 1 mM Cu^2+ there seemed to be a linear relationship between inhibition and concentration of Cu^2+, the inhibition manifesting itself as a decrease in the enzyme activity with increasing concentrations of Cu^2+ (the enzyme activity being measured as average OD405 increase/time from the linear part of dose/response curves).

Molecule	Residual Enzyme Activity ([1]; incubation time 0 hours)	Residual Enzyme Activity ([1]; incubation time 3.1 hours)	Residual Enzyme Activity ([1]; incubation time 18.6 hours)	Residual Enzyme Activity ([1]; incubation time 44.0 hours)	Residual Enzyme Activity ([1]; incubation time 116.0 hours)	Residual Enzyme Activity ([1]; incubation time 164.0 hours)	Residual Enzyme Activity ([1]; incubation time 188.6 hours)	Enzyme Activity, +1 mM Cu^2+ [2]	Enzyme Activity, Control (no Cu^2+) [2]	Relative Activity [2]	Stability in the presence of 1 mM Cu2+ [1]	Feature i): residual activity at least 0.80 after 164 hours with 1 mM Cu2+ [1]
B1	1.000	0.936	0.867	0.842	0.767	0.721	0.703	174.5 mOD405/min	216.0 mOD405/min	–	–	–
B2	1.000	0.930	1.032	0.930	0.737	0.616	0.581	92.3 mOD405/min	133.6 mOD405/min	0.691	–	–
B3	1.000	0.985	1.008	1.003	0.982	1.030	0.993	158.0 mOD405/min	193.1 mOD405/min	–	stable	fulfil feature i)
B4	1.000	1.022	1.073	1.057	1.029	1.053	0.984	50.5 mOD405/min	72.6 mOD405/min	0.695	stable	fulfil feature i)
